This is an account of results in US20150177248.

In this series the target is T1, acetylated p53 peptide (p53-382/diAc), P04637.
T1 chain: RHKK

B1: SIRT7 (sirtuin 7) protein (protein)
chain: MAAGGLSRSERKAAERVRRLREEQQRERLRQVSRILRKAAAERSAEEGRLLAESADLVTELQGRSRRREGLKRRQEEVCDDPEELRGKVRELASAVRNAKYLVVYTGAGISTAASIPDYRGPNGVWTLLQKGRSVSAADLSEAEPTLTHMSITRLHEQKLVQHVVSQNCDGLHLRSGLPRTAISELHGNMYIEVCTSCVPNREYVRVFDVTERTALHRHQTGRTCHKCGTQLRDTIVHFGERGTLGQPLNWEAATEAASRADTILCLGSSLKVLKKYPRLWCMTKPPSRRPKLYIVNLQWTPKDDWAALKLHGKCDDVMRLLMAELGLEIPAYSRWQDPIFSLATPLRAGEEGSHSRKSLCRSREEAPPGDRGAPLSSAPILGGWFGRGCTKRTKRKKVT
For the protein B1, the deacetylation activity entry is “significantly increased”.
